Read-outs that look alike come from different tables or passages of the source.

This is an account of results in PMC10397247.

One assay addresses T1, 4H683-bN.
T1 chain: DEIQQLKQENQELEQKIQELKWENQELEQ
Nature of the assay: two-hybrid library CCNG1.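 Also: natural log of median RNA to DNA barcode read ratio; higher means stronger binding.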

In another assay the target is T2, 4H754-bN.
T2 chain: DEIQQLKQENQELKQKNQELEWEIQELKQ
Nature of the assay: two-hybrid library CCNG1.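 Also: natural log of median RNA to DNA barcode read ratio; higher means stronger binding.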

A further assay concerns the target T3, 4H780-bN.
T3 chain: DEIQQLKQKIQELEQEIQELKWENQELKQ
Briefly: two-hybrid library CCNG1.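 Also: natural log of median RNA to DNA barcode read ratio; higher means stronger binding.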

A further assay addresses T4, 4H797-bN.
T4 chain: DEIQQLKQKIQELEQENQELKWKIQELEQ
Nature of the assay: two-hybrid library CCNG1.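 Also: natural log of median RNA to DNA barcode read ratio; higher means stronger binding.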

A further assay deals with T5, 4H855-bN.
T5 chain: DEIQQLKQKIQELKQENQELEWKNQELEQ
Nature of the assay: two-hybrid library CCNG1.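 Also: natural log of median RNA to DNA barcode read ratio; higher means stronger binding.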

The target of another assay is T6, 4H918-bN.
T6 chain: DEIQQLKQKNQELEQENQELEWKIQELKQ
Nature of the assay: two-hybrid library CCNG1.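 Also: natural log of median RNA to DNA barcode read ratio; higher means stronger binding.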

A further assay has as its target T7, 4H953-bN.
T7 chain: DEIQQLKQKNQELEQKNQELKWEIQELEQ
Nature of the assay: two-hybrid library CCNG1.

Another assay concerns the target T8, 4H968-bN.
T8 chain: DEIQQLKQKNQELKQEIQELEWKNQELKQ
Nature of the assay: two-hybrid library CCNG1.

The target of a further assay is T9, 4H43-AA.
T9 chain: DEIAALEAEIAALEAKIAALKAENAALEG
Briefly: two-hybrid library CCmax.

The target in a further assay is T10, 4H451-AA.
T10 chain: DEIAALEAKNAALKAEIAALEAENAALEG
Briefly: two-hybrid library CCmax. The following applies: mean of both orientations.

Another assay has as its target T11, 4H510-AA.
T11 chain: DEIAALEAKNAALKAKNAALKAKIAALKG
Nature of the assay: two-hybrid library CCmax. The following applies: mean of both orientations.

For another assay, the target named is T12, 4H_APH.
T12 chain: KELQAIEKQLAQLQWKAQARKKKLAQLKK
Nature of the assay: two-hybrid library CCmax.

A further assay addresses T13, 4H_BCR.
T13 chain: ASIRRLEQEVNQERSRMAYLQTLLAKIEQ
Nature of the assay: two-hybrid library CCmax. As to conditions: mean of both orientations.

The target in a further assay is GCN2_T. Nature of the assay: two-hybrid library CCmax.
Another assay addresses T14, O11-AA.
T14 chain: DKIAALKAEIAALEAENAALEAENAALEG
Briefly: two-hybrid library CCmax. As to conditions: mean of both orientations.

The next assay addresses T15, O13-AA.
T15 chain: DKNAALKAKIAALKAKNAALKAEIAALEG
Briefly: two-hybrid library CCmax. The following applies: mean of both orientations.

For the next assay, the target named is T16, O14-AA.
T16 chain: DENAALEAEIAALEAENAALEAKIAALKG
Briefly: two-hybrid library CCmax. The following applies: mean of both orientations.

A further assay deals with T17, 4H58-AA.
T17 chain: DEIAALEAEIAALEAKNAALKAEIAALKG
Briefly: two-hybrid library CCmax.

The target in another assay is T18, 4H895-AA.
T18 chain: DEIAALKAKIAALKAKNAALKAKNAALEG
Briefly: two-hybrid library CCmax. The following applies: mean of both orientations.

For another assay, the target named is 4H_GCN4. Nature of the assay: two-hybrid library CCmax.
Chain of 4H_GCN4 (chain, as listed by the source): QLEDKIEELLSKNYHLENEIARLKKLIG
Another assay concerns the target T19, 4H477-bA.
T19 chain: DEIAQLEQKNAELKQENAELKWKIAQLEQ
Nature of the assay: two-hybrid library CCNG1.

In the next assay the target is T20, 4H492-bA.
T20 chain: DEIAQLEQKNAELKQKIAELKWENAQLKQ
Briefly: two-hybrid library CCNG1.

The next assay concerns the target T21, 4H72-bN.
T21 chain: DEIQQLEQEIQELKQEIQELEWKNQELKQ
Briefly: two-hybrid library CCNG1.

For the next assay, the target named is T22, 4H741-bA.
T22 chain: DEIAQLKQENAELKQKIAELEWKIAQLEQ
Nature of the assay: two-hybrid library CCNG1.

A further assay deals with T23, 4H626-bH.
T23 chain: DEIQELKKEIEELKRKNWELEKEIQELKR
Briefly: two-hybrid library CCNG1.

A further assay has as its target T24, 4H906-bH.
T24 chain: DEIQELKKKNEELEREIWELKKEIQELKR
Nature of the assay: two-hybrid library CCNG1.

As for DEIQQLKQENQELEQKIQELKWENQELEQ [4H683-bN], the interaction score with 4H683-bN was -0.0866; with 4H754-bN it was -1.46; in the assay with 4H780-bN, -0.606; in the assay with 4H797-bN it was 0.0127; with 4H855-bN it was -0.411; in the assay with 4H918-bN, -0.318. Further, the results for the interaction score with 4H953-bN and with 4H968-bN were -0.218 and 1.51, respectively.

Take DEIAALEAEIAALEAKIAALKAENAALEG [4H43-AA]: the interaction score was 1.54 in the assay with 4H43-AA; -1.31 in the assay with 4H451-AA; -0.823 with 4H510-AA; -0.887 in the assay with 4H_APH (mean of both orientations); -1.44 in the assay with 4H_BCR; -1.41 with GCN2_T. In addition, the interaction score with O11-AA was -0.943; with O13-AA, 0.246; in the assay with O14-AA it was -0.845.

DEIAALEAEIAALEAKNAALKAEIAALKG [4H58-AA]: the interaction score with 4H58-AA is 1.75; with 4H895-AA it was -0.545; in the assay with 4H_APH, -1.68; with 4H_BCR it was -2.14; in the assay with 4H_GCN4, 0.011; with GCN2_T, -0.172.

As to DEIAQLEQKNAELKQENAELKWKIAQLEQ [4H477-bA], the interaction score with 4H477-bA is -0.249; with 4H492-bA, -0.749; with 4H72-bN it was -3.66; with 4H741-bA it was -1.37.

On to DEIQELKKEIEELKRKNWELEKEIQELKR [4H626-bH], for which the interaction score was 0.932 in the assay with 4H626-bH and -0.349 with 4H906-bH.
